According to US20250312499A1, “KISSPEPTIN RECEPTOR (KISS1R) TARGETED THERAPEUTICS AND USES THEREOF” (priority 2024, published 2025):
Numbered stars: 1 amine (or outer) side, 2 acyl side, 3 side chain; on linkers, the order of the positions; unused ones are H or OH. Square brackets hold non-standard residues; d marks the D form. * marks the point of attachment. X2 = 4‑amino‑1‑((3-fluoro-4-methylbenzyl)glycyl)piperidine‑4‑carboxylic acid, Cc1ccc(CN(CC(=O)N2CCC(N[*:1])(C(=O)[*:2])CC2)[*:3])cc1F; DOTA = O=C(O)CN1CCN(CC(=O)O)CCN(CC(=O)*)CCN(CC(=O)O)CC1; Butanoyl(4-(4-I-phenyl)) = O=C(CCCc1ccc(I)cc1)*; Api(1-amidino) = N=C(N)N1CCC(N)(C(=O)O)CC1; Phe(3-F) = N[C@@H](Cc1cccc(F)c1)C(=O)O; Phe(4-I) = N[C@@H](Cc1ccc(I)cc1)C(=O)O; d2Nal = N[C@H](Cc1ccc2ccccc2c1)C(=O)O; Hyp = O=C(O)[C@@H]1C[C@@H](O)CN1; 4Pal = N[C@@H](Cc1ccncc1)C(=O)O; Cha = N[C@@H](CC1CCCCC1)C(=O)O; d(β3hD) = NC(CC(=O)O)CC(=O)O; 4Amb = NCc1ccc(C(=O)O)cc1; Pip = O=C(O)[C@@H]1CCCCN1; Octanoyl = CCCCCCCC(=O)*; Ahx = NCCCCCC(=O)O; azaGly = NNC(=O)O; βAla = NCCC(=O)O; Sar = CNCC(=O)O

target: human kisspeptin receptor (KISS1R) (human) (UniProt Q969F8); experiment: radioligand competition, hKISS1R membranes; legend: A is <10 nM
Sequence (Q969F8 whole entry): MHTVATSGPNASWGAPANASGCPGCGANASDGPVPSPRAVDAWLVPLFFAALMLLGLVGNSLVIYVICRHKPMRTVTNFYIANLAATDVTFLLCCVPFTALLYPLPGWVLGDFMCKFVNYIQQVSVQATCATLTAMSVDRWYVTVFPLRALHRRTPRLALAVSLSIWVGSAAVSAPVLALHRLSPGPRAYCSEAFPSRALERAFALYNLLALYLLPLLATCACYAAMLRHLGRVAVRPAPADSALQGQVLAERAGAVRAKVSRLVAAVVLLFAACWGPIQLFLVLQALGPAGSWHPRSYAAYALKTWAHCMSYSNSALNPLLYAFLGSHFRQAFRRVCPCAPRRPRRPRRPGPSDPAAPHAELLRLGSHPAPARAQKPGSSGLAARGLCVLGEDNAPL

Row | Binder | Ki [nM]
1 | {DOTA-Ahx}-[dY][Hyp]NTF[azaGly]L[Api(1-amidino)]W-NH2 (SMILES CC(C)C[C@H](NC(=O)NNC(=O)[C@H](Cc1ccccc1)NC(=O)[C@@H](NC(=O)[C@H](CC(N)=O)NC(=O)[C@@H]1C[C@@H](O)CN1C(=O)[C@@H](Cc1ccc(O)cc1)NC(=O)CCCCCNC(=O)CN1CCN(CC(=O)O)CCN(CC(=O)O)CCN(CC(=O)O)CC1)[C@@H](C)O)C(=O)NC1(C(=O)N[C@@H](Cc2c[nH]c3ccccc23)C(N)=O)CCN(C(=N)N)CC1) [Compound 311] | < 10
2 | {DOTA-Ahx}-[dY][d2Nal]NTF[azaGly]L[4‑amino‑1‑(octylglycyl)piperidine‑4‑carboxylic acid][dW]-NH2 [Compound 374] | < 10
3 | {DOTA-Ahx}-[dK](Butanoyl(4-(4-I-phenyl)))[Ahx][dY][d2Nal]NTF[azaGly]L[Api(1-amidino)]W-NH2 (SMILES CC(C)C[C@H](NC(=O)NNC(=O)[C@H](Cc1ccccc1)NC(=O)[C@@H](NC(=O)[C@H](CC(N)=O)NC(=O)[C@@H](Cc1ccc2ccccc2c1)NC(=O)[C@@H](Cc1ccc(O)cc1)NC(=O)CCCCCNC(=O)[C@@H](CCCCNC(=O)CCCc1ccc(I)cc1)NC(=O)CCCCCNC(=O)CN1CCN(CC(=O)O)CCN(CC(=O)O)CCN(CC(=O)O)CC1)[C@@H](C)O)C(=O)NC1(C(=O)N[C@@H](Cc2c[nH]c3ccccc23)C(N)=O)CCN(C(=N)N)CC1) [Compound 337] | < 10
4 | {DOTA-Ahx}-[dY][d2Nal]NTF[azaGly]L[4‑amino‑1‑((4-iodobenzyl)glycyl)piperidine‑4‑carboxylic acid][dW]-NH2 [Compound 371] | < 10
5 | {DOTA-Ahx}-[dY][d2Nal]NT[Cha][azaGly]L[Api(1-amidino)]W-NH2 (SMILES CC(C)C[C@H](NC(=O)NNC(=O)[C@H](CC1CCCCC1)NC(=O)[C@@H](NC(=O)[C@H](CC(N)=O)NC(=O)[C@@H](Cc1ccc2ccccc2c1)NC(=O)[C@@H](Cc1ccc(O)cc1)NC(=O)CCCCCNC(=O)CN1CCN(CC(=O)O)CCN(CC(=O)O)CCN(CC(=O)O)CC1)[C@@H](C)O)C(=O)NC1(C(=O)N[C@@H](Cc2c[nH]c3ccccc23)C(N)=O)CCN(C(=N)N)CC1) [Compound 317] | < 10
6 | {DOTA-Ahx}-[dY][d2Nal]NTF[azaGly]L[Pip][dW]-NH2 [Compound 339] | < 10
7 | {DOTA-Ahx}-[dK](Butanoyl(4-(4-I-phenyl)))[dY][d2Nal]NTF[azaGly]L[Api(1-amidino)]F-NH2 (SMILES CC(C)C[C@H](NC(=O)NNC(=O)[C@H](Cc1ccccc1)NC(=O)[C@@H](NC(=O)[C@H](CC(N)=O)NC(=O)[C@@H](Cc1ccc2ccccc2c1)NC(=O)[C@@H](Cc1ccc(O)cc1)NC(=O)[C@@H](CCCCNC(=O)CCCc1ccc(I)cc1)NC(=O)CCCCCNC(=O)CN1CCN(CC(=O)O)CCN(CC(=O)O)CCN(CC(=O)O)CC1)[C@@H](C)O)C(=O)NC1(C(=O)N[C@@H](Cc2ccccc2)C(N)=O)CCN(C(=N)N)CC1) [Compound 310] | < 10

target: human kisspeptin receptor (KISS1R) (human), Q969F8; experiment: radioligand competition, hKISS1R membranes; legend: B is 10-100 nM
Sequence (Q969F8 whole entry): as above

Row | Binder | Ki [nM]
8 | {DOTA-Ahx}-F[azaGly]L[4‑amino‑1‑(4-(p-tolyl)butanoyl)piperidine‑4‑carboxylic acid]W-NH2 [Compound 7] | 10 to 100
9 | {DOTA-trans‑4‑(aminomethyl)cyclohexane‑1‑carboxylic acid}-[D‑3‑aminopentanedioic acid]NT[Phe(3-F)][azaGly]L[X2][4Pal]-NH2 [Compound 231] | 10 to 100
10 | {DOTA-Ahx}-F[Sar]L[X2]W-NH2 (SMILES Cc1ccc(CNCC(=O)N2CCC(NC(=O)[C@H](CC(C)C)NC(=O)CN(C)C(=O)[C@H](Cc3ccccc3)NC(=O)CCCCCNC(=O)CN3CCN(CC(=O)O)CCN(CC(=O)O)CCN(CC(=O)O)CC3)(C(=O)N[C@@H](Cc3c[nH]c4ccccc34)C(N)=O)CC2)cc1F) [Compound 12] | 10 to 100
11 | {DOTA-Ahx}-[dA][dA][dA][dA][dA]F[azaGly]L[X2]W-NH2 (SMILES Cc1ccc(CNCC(=O)N2CCC(NC(=O)[C@H](CC(C)C)NC(=O)NNC(=O)[C@H](Cc3ccccc3)NC(=O)[C@@H](C)NC(=O)[C@@H](C)NC(=O)[C@@H](C)NC(=O)[C@@H](C)NC(=O)[C@@H](C)NC(=O)CCCCCNC(=O)CN3CCN(CC(=O)O)CCN(CC(=O)O)CCN(CC(=O)O)CC3)(C(=O)N[C@@H](Cc3c[nH]c4ccccc34)C(N)=O)CC2)cc1F) [Compound 13] | 10 to 100
12 | {DOTA}-[dN]F[azaGly]L[X2]W-NH2 (SMILES Cc1ccc(CNCC(=O)N2CCC(NC(=O)[C@H](CC(C)C)NC(=O)NNC(=O)[C@H](Cc3ccccc3)NC(=O)[C@@H](CC(N)=O)NC(=O)CN3CCN(CC(=O)O)CCN(CC(=O)O)CCN(CC(=O)O)CC3)(C(=O)N[C@@H](Cc3c[nH]c4ccccc34)C(N)=O)CC2)cc1F) [Compound 21] | 10 to 100
13 | {DOTA}-[dK][dN]F[azaGly]L[X2]W-NH2 (SMILES Cc1ccc(CNCC(=O)N2CCC(NC(=O)[C@H](CC(C)C)NC(=O)NNC(=O)[C@H](Cc3ccccc3)NC(=O)[C@@H](CC(N)=O)NC(=O)[C@@H](CCCCN)NC(=O)CN3CCN(CC(=O)O)CCN(CC(=O)O)CCN(CC(=O)O)CC3)(C(=O)N[C@@H](Cc3c[nH]c4ccccc34)C(N)=O)CC2)cc1F) [Compound 19] | 10 to 100
14 | {DOTA}-[dN][dN]F[azaGly]L[X2]W-NH2 (SMILES Cc1ccc(CNCC(=O)N2CCC(NC(=O)[C@H](CC(C)C)NC(=O)NNC(=O)[C@H](Cc3ccccc3)NC(=O)[C@@H](CC(N)=O)NC(=O)[C@@H](CC(N)=O)NC(=O)CN3CCN(CC(=O)O)CCN(CC(=O)O)CCN(CC(=O)O)CC3)(C(=O)N[C@@H](Cc3c[nH]c4ccccc34)C(N)=O)CC2)cc1F) [Compound 18] | 10 to 100
15 | {DOTA}-ENT[Phe(3-F)][azaGly]L[X2][4Pal]-NH2 (SMILES Cc1ccc(CNCC(=O)N2CCC(NC(=O)[C@H](CC(C)C)NC(=O)NNC(=O)[C@H](Cc3cccc(F)c3)NC(=O)[C@@H](NC(=O)[C@H](CC(N)=O)NC(=O)[C@H](CCC(=O)O)NC(=O)CN3CCN(CC(=O)O)CCN(CC(=O)O)CCN(CC(=O)O)CC3)[C@@H](C)O)(C(=O)N[C@@H](Cc3ccncc3)C(N)=O)CC2)cc1F) [Compound 171] | 10 to 100
16 | {DOTA}-[d(β3hD)]NT[Phe(3-F)][azaGly]L[X2][4Pal]-NH2 [Compound 230] | 10 to 100
17 | {DOTA}-[βAla][dN][dN][dN][dN][dN]F[azaGly]L[X2]W-NH2 (SMILES Cc1ccc(CNCC(=O)N2CCC(NC(=O)[C@H](CC(C)C)NC(=O)NNC(=O)[C@H](Cc3ccccc3)NC(=O)[C@@H](CC(N)=O)NC(=O)[C@@H](CC(N)=O)NC(=O)[C@@H](CC(N)=O)NC(=O)[C@@H](CC(N)=O)NC(=O)[C@@H](CC(N)=O)NC(=O)CCNC(=O)CN3CCN(CC(=O)O)CCN(CC(=O)O)CCN(CC(=O)O)CC3)(C(=O)N[C@@H](Cc3c[nH]c4ccccc34)C(N)=O)CC2)cc1F) [Compound 14] | 10 to 100
18 | {DOTA}-[dY][Phe(4-I)]NT[Phe(4-I)][azaGly]L[Api(1-amidino)][4Pal]-NH2 (SMILES CC(C)C[C@H](NC(=O)NNC(=O)[C@H](Cc1ccc(I)cc1)NC(=O)[C@@H](NC(=O)[C@H](CC(N)=O)NC(=O)[C@H](Cc1ccc(I)cc1)NC(=O)[C@@H](Cc1ccc(O)cc1)NC(=O)CN1CCN(CC(=O)O)CCN(CC(=O)O)CCN(CC(=O)O)CC1)[C@@H](C)O)C(=O)NC1(C(=O)N[C@@H](Cc2ccncc2)C(N)=O)CCN(C(=N)N)CC1) [Compound 121] | 10 to 100
19 | Octanoyl-K(DOTA)NTF[azaGly]L[Api(1-amidino)][4Pal]-NH2 (SMILES CCCCCCCC(=O)N[C@@H](CCCCNC(=O)CN1CCN(CC(=O)O)CCN(CC(=O)O)CCN(CC(=O)O)CC1)C(=O)N[C@@H](CC(N)=O)C(=O)N[C@H](C(=O)N[C@@H](Cc1ccccc1)C(=O)NNC(=O)N[C@@H](CC(C)C)C(=O)NC1(C(=O)N[C@@H](Cc2ccncc2)C(N)=O)CCN(C(=N)N)CC1)[C@@H](C)O) [Compound 226] | 10 to 100
20 | {DOTA-Ahx}-F[azaGly]L[Api(1-amidino)]W-NH2 (SMILES CC(C)C[C@H](NC(=O)NNC(=O)[C@H](Cc1ccccc1)NC(=O)CCCCCNC(=O)CN1CCN(CC(=O)O)CCN(CC(=O)O)CCN(CC(=O)O)CC1)C(=O)NC1(C(=O)N[C@@H](Cc2c[nH]c3ccccc23)C(N)=O)CCN(C(=N)N)CC1) [Compound 5] | 10 to 100
21 | {DOTA-4Amb}-F[azaGly][dL][X2]W-NH2 (SMILES Cc1ccc(CNCC(=O)N2CCC(NC(=O)[C@@H](CC(C)C)NC(=O)NNC(=O)[C@H](Cc3ccccc3)NC(=O)c3ccc(CNC(=O)CN4CCN(CC(=O)O)CCN(CC(=O)O)CCN(CC(=O)O)CC4)cc3)(C(=O)N[C@@H](Cc3c[nH]c4ccccc34)C(N)=O)CC2)cc1F) [Compound 260] | 10 to 100
